Data published in a protein production outcome set (Wang et al. 2014).

Test: label from the status in PepcDB records

| Sequence | protein production |
| --- | --- |
| MSGVTSEPIAMDATRFQHTPYYCEENVYLLCKTLCENGVAEATCSDLFVVFISNEKKQVPLWHQKASTRADGVVLWDYHVICVQRKKESDSEPLVWDLDSTLPFPSPLASYVTETIQPSFQLFAEYQRFFRIVHAPLFFKHFASDRRHMKEPDGSWTAQPPPYEPIVAQDGILHNLSEYIAMSGADTLSSLDPETVTAAISQKLGVVVSHTQLQDLFTKLP | failed |
| MSHAHKKHKENAPKSLNFYVITISTSRYEKLLKKEPIVDESGDIIKQLLIENGHKIIGYSLVPDDKIKILKAFTDALSIDEVDVIISTGGTGYSPTDITVETIRKLFDREIEGFSDVFRLVSFNDPEVKAAAYLTKASAGIIGKKIVYLLPGSPDAVKLALKELILPEVGHLVYLVRS | not failed |
| MSHKCFKDESFETRISCPLCQKELIMTWQRDNIPYFGEIMYVSAKCPCSFRFADTMILSSKEPMRYELSVESPEDLDARVIRSTSGTIRIPEMGIVVEPGTVSDSYITNIEGVLQRVQNVLMTASRWVREDEEKFARSQELLCMLNEVIEGRRAITVIIEDPLGNSAIISKKAVASKLSKEEAEKLNTGMIVFDVDKSELAHDISDNVKPLGGDLEHHHHHH | not failed |
| MSHLRIPKNWTIQRSTPFFTKDNVPEALLTHHNTAVDVFGQICVMEGVVTYYGFANSEATEPEIKVVINAGQFATSPPQYWHRIELSDDAQFNINFWSDQDKSGKKMFNTKLEHHHHHH | not failed |
| MSHVSDYRPCFLIPCYNHGSTIADVVASLSSFDLPVLVVDDGSNEDTKQALSALSEQGLIKLISLSENQGKGGAVMAGLHQAHQLGFTHTIQIDADGQHDLEALPKLLSASETKPDNLISGQPIYDESVPKARLYGRYATHIWVWIETLSLSIKDSMCGFRAYPVAKTVAVLNKYNIGKRMDFDIEILVRMYWEGVDIDFVPTRVIYPEGGISHFDALWDNVKISWMHTRLFFGMLPRIPSLLARKRRHTDDSNAHWSKRKEQGTILGIKTLLAVYRLFGRKAFDLILKLVMRYYHFTGKSAREASEIYLQNLQRYAAQQNIALPKQLDSYHHLLSFGRTMLDKLAAWQGDFNVDNLTIHGQHHFEEMAQKKQGVLILGSHLGNIELCRALGRRHSHVKINALVFTQHAEQFNAVMKAVNPNSELNLIQVSSMGPDTAILLQQKIEQGEWVVIVGDRTSTSKENRVVWADFLGKPAPFPQGPFMLASVLKAPVYLLFGLRDDEANTPHFNVYFEHFSDQITLPRKERQQALEHVVQQYAHRLEHHTLQAPLQWYNFFNFWTLSNQPHDKQQ | failed |
| MSIEERLEALEKEIQKMKDIEEIKKLKGQYFRCLDGKFWDELETTLSPNIVTSYSNGKLVFHGPKEVTDYFKKAMPREEISMHMGHTPEITIDSETTATGRWYLEDKLIFTEESKYAGSGVNGGAFYTDKYEKVDGKWYILETGYLRVYEEHFMRDPKIKITMNMHKTK | not failed |
| MSIFANLKDRMKAVFQPRSDILASQDAESTPGSRDALFAIEELSRAVRNDPDAVEIYLALGNLYRLRGDIDRAVQIRSSLIVRPGLDNRFRARAYLELGRDYRRGGFVDRALQAFDEAQRLGAERDAIILELAHLHADSGSFDLAAEQFGRVGHKPAQAHYLVRHAEDLCGQGEFAEAVKTLTRAVKVYPGSIEAWTTRIAMHIRSGEWRKAKSMLREAMQSVSPDRRFLVFDGILAITPPENAPDSVQQFEQNRCECVLPVISEQEPELLLHYYGALFLLRCGEREQAGNWLAKAMVLRPDFWAARLELLGISMDRQQLSPVFKGQLEYFVSQARHVKRFVCQNCGLRREQAFYLCPRCRSWHSATFRLSLQD | failed |
| MSIIIPAYNEEENIKRAIKAALSQDYPVSEVIVVDDGSEDGTYERAKEIKDHRLKVLKIDHRGKAGAINEGLKIAKGSVIVTTDADSFMSKDAVRRLVERFYSDDVVAVGGQIRVIVESFMTLVQDIEHLRIAMYRRGKELENLSLAPGPLSAFRRDVLEKIGGIQRSIVEDYATTKIVKKYGRVVYAPKAKLYTRMPITLRDLWRQRKRWFLGDLQHHNLNDLLNLLLGDVIALLDVILPFIFLLEGSYLPLLAFVMFEVITMVIAVIWEGGSLIEALLFPVVLWFLALFYLSLHLYGYAVYGLKSLLRFTRS | failed |
| MSINISELLQPITEQSPCGEDYSFSNEFHLIKKARTQDDVLLDQGDWVTELKQADWETVTSTSSNLLKTKTKDIRLLTWLSEGWANLYGFEGIYQGIELSHRLLDQFWNDIHPVVEDDDLDQRIALLQGLINQLPLLIKKTPLINTSPYYHLLNYENFLHHQNIRRKQSDEYEQLDGPSEIELFEQALFNTSKSFQYQNYQMFKHVVSQWQQLKDVLDRLMGVDAPSFAAIDSSLQDIDVNLRKIYKAEAFDTNPVATSSATASSHASETLSTEPMPTSNVNVNQPSFQPQTQNHIQNREQAIRVLQDISDYFQANEPHSPVSYMLQKTIKWSQMPLHEWLAQVIKDEHPLQLVQEALGVQPKNEYE | failed |
| MSINLSKGDKIDLKKSNPGLSNILVGLGWDPVQQSGGGFFKSLFGGGQADIDCDASVFMLNQEGKLSGIKDLIYFGNLKSACKSVLHTGDNLTGEGTGDDEQILVNLDKVPSNIHKLLFVVNIYNCVDRKQHFGMIENAYIRVEDQGNKKEIAKYNLSDNYSEKTTLIVGAIYRKDGSWQFKAIGEGTKDAGLKEVMQNLDRIECAYGI | failed |
| MSISDNSRDQLGELPAGRPLQSDFDNDLDYPRLGSVTFRRGTLTENQQTMWDEKWPELGRVLEDELIDVDAWFGREGAKTIVEIGSGTGTSTAAMAPLEADTNIVAVELYKPGLAKLMGSVVRGEIDNVRMVRGDGIEVLNRMFADGSLDGIRVYFPDPWPKARHNKRRIIQSGPLNLFAKKLKPGGVLHVATDHADYAEWINELVEVEPLLEYKGWPWEECPQLTDRQVITKFEGKGLEKDHVINEYLWQKVQN | failed |
| MSITLITAAPGAGKTIFAVWNIIKPAVEADRVVYTAGIPELKLPAISLSYSQVKRWADRELVEVENPSGIPIPDDEKPSRLQNITEGALIVIDEVQYLWPASGSREPGEDIKYLTKHRHHGLEFVLITQAPQLIHKNVLAVVDKHIHMLSDWHGRKRYEWPEYCATVRATSSKLKAVSQRYELPKEAYGLYRSASMHI | failed |
| MSIWSPLLFNAEGKKQGYDCRYLHKLTDQGNKLSDSGLPVIFTLAHLCAMAGVSFSLIHSCVSRKYDPYRSFTIKKRSGGYRQIVVPEPELMHLQRWINEFILKRAKVHSCAAAYISGSDIKMNASKHLGANWLIKLDIQRFFESISELQVYYIFHRLGYPKLLSFEMARICTRVDTQSNRHFRPRWNNRIHHFEILEYCDSRVGYLPQGAPTSPSLSNLTCRKLDKEIYDLSCRSDCRYTRYADDFAFSFIDLDREKASNFVNQVSRIISSYGFRKNARKTKIIPPGSKKIITGLVLGNGKVHLQKELKDYIRQNIYFATKYGVDEHCKKRGFVSIDGFYNHLEGIVNFALFIEPDFGEKAFEEFRAIKWPSLIVGLHA | failed |
| MSKARKTAASSGEPDFWRVARDWLHHWLPKVRGSSPKTVEAYRIGLESYVRWLETTEGTQRSHIGFGHFDRARLGRWVEWMRTERGYSDRTIMLRMTTMRVFLDHAGLEHPALTALGNDAAGIRVKPPARKPVDHLGEEHTKALLTAWGTGDAKSRRNRMLLILMYDTAARIGELAALTIADVGMDKPARVTLTGKRGKSRVVPLGERTRTHLAAYLEEFHPGPSMRDGDRPLFHSTRNGAIQPLSVDRIDEILKTAAARARRGTCPSMPERVHCHLIRRTRAMDLYQQGVPLPLIMQLLGHESMSTTSAFYAFATLDMMRKAVDAANPGPDPSKETWLSEQRLRQLHTLK | failed |
| MSKELTAKKRAALNRLKTVRGHLDGIVRMLESDAYCVDVMKQISAVQSSLERANRVMLHNHLETCFSTAVLDGHGQAAIEELIDAVKFTPALTGPHARLGGAAVGESATEEPMPDASNM | not failed |
| MSKFRSCSWKCSDMGKSLCGAGGLVWTPPHPLLRKALSHRGRGVKDTNFVGMTTRAVRKGTLRARALRRTQTVEEKTLWLALRNRFLNVKFRRQWPMGGYVVDFVCFEAKLIVELDGSQHAEEAARDYDAVRTEFLEAGGFTVLRFWNNEVRKNLEGVLLEIQKRLP | failed |
| MSKGKYIHFDTLVSAKTGDIVAIQDILNQFRGYIISRSLRTAYRSDGSLYQYIDTDVQHKMETDLIEAIYKFEIRLEHHHHHH | failed |
| MSKGTLFTIAVTPKIPPRLARLEDLANDLWYSWDRATRSLFSRLDPSLWGAVGHNPKAFLKRVDETLLLKAAEDQVFLANYNSIVSAYDYYHSETLWNGIDASLNPSDKIAYFCFEFGFHESFPIYSGGLGILAGDHCKAASDLRLPLIGIGLLYRQGYFFQTIDNQGNQQVIYADSDFSDLPVAPVLREDGSEVRIKVELLQRPVAIKVWRAKIGHVSLYLLDTDLPENSPGDRDITHQLYGGDRVMRIEQEIVLGVGGIRALREMGIEPTIWHINEGHAAFMMLERIRGHVQQGLDFPAALEAVAASTVFTTHTAVPAGHDHFSDDMMNAYFEPFYRDLKITREDFLALGRVPGSDDFNMTDLAIRASRYQNGVSKIHGNVSARICKDVWPQIEPEENPMSYITNGVHVPTFLAQEWADLFDRYLGYEWRNNMCDTEYWSRIDTIPDHLFWSVRQTLKSQMFYGIRARLTTQNARNHGSEAHLDRLLRFTDPINPNILTLGFGRRFATYKRATLLFEDLDWLRRIMLDQEHPVMIVFAGKAHPADVPGQDLIRRVSEIARMPEFEGQILLVEDYDLRLARRLVAGVDVWINSPVYPLEASGTSGMKAGINGTINLSVLDGWWGEGYDGKNGWAIKPGPENMDAVRRDKEESKDFYETLQDHVVPLYYNRDKLGYSSGWVKMAKNSMKSLLPRYNATRMITEYTMKFYLPAKKQGALYAADDFSNARKIAAWKAFVREAWPGVTIRRLDKPFSQISFGEAVDFRVAVRLNGLHPEDVVVELLICRRLKKTTLCSFKHVRFQFRGIEEESAEHLFELDHTPDLCGKLDYYIRVYPYHALLTHPFEMGMMVWL | failed |
| MSKHTVLFELGCEELPPKSLKTLRDALQAETVKGLKDAGLAFASIEAYAAPRRLALKIVDVDGAQADTQKRFDGPAVQAAYDAEGKPTKALEGFMRGQGITADQVSTFQAGKVEKVCYLKDVKGQTLDALLPQILQTALDNLPIAKRMRSAASRTEFVRPVKWVVLLKDDQIIEATIQDHQAGNVTYGHRFHAPEAVTLAHANDYLAALEKAYVVANFEKRQATIQEQVKKLADEVNATAIVPADLLDEVTSLVEWPVALRANFEERFLAVPQEALITTMQDNQKYFCLINSEGKLQPYFITVSNIESKDPTQIIEGNEKVVRPRLSDAEFFFLQDQKQPLASRKEKLANMVFQAQLGTLWDKSTRIAKLAVALSPITGANPADAEKAALLAKCDLTSELVGEFPELQGIAGTYYARIEGENTEVSEALGEQYLPKFAGDVLPKTKTGTTIALADRLDTLVGIFGIGQAPTGSKDPFALRRSAIGILRLIIENELDVTIEELVNLALQGYGDIVKDHDKTLADAVAFLEGRYRAKYEDQGVAVDVLQAVQALAPKS | failed |
| MSKKIFAALIVAVVATFAGYNIYQSQRAEMEMSDLAMANIEALANDGESSTETTWSCKGTVGTCGAKCGLCGTTIPKSKGTLTGSHKCSM | failed |
| MSKKPHSIKVPTQYRATAKILKAALEQQKCIKTLIFAEKHARTRSLHTVLKKFSENRVALEKAIEETGLLRDNPSFDPSLAKILVTELLFGRKELNGESKPVQTVRSYKDRLLNSIRDFGVQRKEPNPRYVRINTNLYSLAEALDYLHKSDWRRKELPADASYADFLTAIKSLAENEFMTDLHVEGVLIFPAKWSNYWVRHPLVHSKRFILQNKATCLAAELLAPPSGATVLDMCAAPGMKTVHICNVMQNKGCIYSVEQDHVRYNTLCEITKDAGCDIVKPILGDALNLTPERFPDVEYILVDPSCSGSGMQNRMTVCDEPKEDKRLQKLQGLQIKILSHAMGAFPNVKRIAYCTCSLWKEENEQVVQRCLQLNPSFKLLSCKKALRNKWHNVGDKDYPNIGKNVLYCQPDSDLTDGIFLALFEKRREGEKD | failed |
